How the values were obtained:
Y177A, W151A, and F141A = test: ITC
[1] = target: Spindlin1_(50-262) bound to DOCpep(1-3) (UniProt Q9Y657); test: ITC

| fold reduction of binding against wild-type Spindlin1 (Y177A, W151A, and F141A) [fold] | fold decrease of binding affinity in the presence of DOCpep(1-3) [1] [fold] | Substance |
| --- | --- | --- |
| 1.5 to 3 |  | DOCpep2, SPIN•DOC 228-239 peptide (from UniProt Q9BUA3 228-239) |
|  | 18 | histone H3 1-20 K4me3 peptide (from UniProt P68431 2-21) |

Reference: doi:10.1101/2021.03.07.432812
